Entries after “also recorded” stand apart in the source; their conditions may differ. Like-named read-outs stand apart in the source and are kept apart here.
How the values were obtained:
bovine chymotrypsin [1] = target: T1, bovine chymotrypsin (Bos taurus, UniProt P00766); conditions: stated for comparison, no test described; cited from earlier work
Human Sputum Cathepsin G [2] = target: T2, Human Sputum Cathepsin G (Homo sapiens, UniProt P08311); conditions: stated for comparison, no test described; cited from earlier work
T2 construct: Human Sputum Cathepsin G (Product No. SG-45, EPC, Inc., Pacific, Mo.); purchased EPC, Inc., Pacific, Mo; SG-45; host or cells: human sputum
T2 sequence (P08311 21-255): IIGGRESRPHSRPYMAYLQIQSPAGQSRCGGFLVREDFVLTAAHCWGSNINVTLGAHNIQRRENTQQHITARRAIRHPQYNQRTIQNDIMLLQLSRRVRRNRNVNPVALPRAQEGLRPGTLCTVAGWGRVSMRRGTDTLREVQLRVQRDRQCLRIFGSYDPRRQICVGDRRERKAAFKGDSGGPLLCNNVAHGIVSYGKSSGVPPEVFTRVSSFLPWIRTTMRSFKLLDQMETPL

bovine trypsin [3] = target: T3, bovine trypsin (Bos taurus, UniProt P00760); conditions: stated for comparison, no test described; cited from earlier work
T3 sequence (P00760 24-246): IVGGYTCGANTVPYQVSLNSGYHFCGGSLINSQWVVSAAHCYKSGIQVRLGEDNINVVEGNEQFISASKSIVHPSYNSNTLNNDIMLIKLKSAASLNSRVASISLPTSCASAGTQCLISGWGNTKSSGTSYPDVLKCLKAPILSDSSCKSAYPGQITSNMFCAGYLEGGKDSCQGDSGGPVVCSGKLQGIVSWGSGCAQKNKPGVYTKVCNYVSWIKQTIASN

Human Sputum Cathepsin G [4] = target: T2, Human Sputum Cathepsin G; experiment: Cathepsin G assay (spectrophotometric, p-nitroanilide substrate); type: biochemical; conditions: for Inhibitory Activity Cathepsin G: inhibitor/protease ratio between about 10/1 and 50/1
Procedure: (§1) The inhibitory activity of the polypeptides of the present invention can be easily assayed using in vitro assays. In these types of spectrophotometric assays the activity of the serine protease is measured toward an appropriate p-nitroanilide substrate in the presence and absence of the peptide inhibitor. The enzyme catalyzed hydrolysis of the peptide p-nitroanilide substrate produces p-nitroanaline which results in an increase in absorbance which is monitored in the range of 405 to 410 nm. The rate of increase in absorbance is a measure of the enzymatic activity and the decrease in this rate relative to a suitable control is used to ascertain inhibition. The general assay procedure and details of the particular assays employed in the examples are provided in the Appendix following the examples. It is also possible to test the polypeptides in a functionally oriented assay that emulates in vivo conditions. Such an inhibition assay for elastase is also described in the Appendix.
(§2) Generalized Protocol Spectrophotometric Assays:
(§3) (1) Pipette 100 μl of enzyme solution into a disposable polystyrene cuvette (1 cm optical path length).
(§4) (2) Add (1900-X) μl of bufferto the cuvette, where X is the volume of test solution in microliters that is added in the next step.
(§5) Add X μl of test solution to the cuvette, where X ranges from 0 μl for the control to a maximum of about 500 μl. Incubate the solution for a period of 1 to 5 minutes at ambient temperature.
(§6) (4) Add 100 μl of substrate solution to the cuvette. Mix the contents by covering the cuvette with a piece of paraffin film and repeatedly inverting for a period of 5 to 15 seconds.
(§7) (5) Record the change in absorbance for about 5 minutes at either 405 or 410 nm, depending on the assay, with a spectrophotometer equipped with a suitable recording device.
(§8) The percent inhibition is calculated from the formula [formula] where (ΔA/min) is the initial rate of absorbance change.
(§9) (7) For more accurate quantitative determinations temperature control of the cuvette holders and the reagent solutions can be instituted.
(§10) (8) The test solution can be crude oxidized peptide prepared as described above, fractions from a chromatographic separation or purified polypeptides.
(A) Buffer Solution - Tris-NaCl buffer consisting of 0.1M Tris-HCl, pH 8.0 containing 0.5M NaCl and 0.03% sodium azide.
(B) Substrate solution - Dissolve 50 mg of N-succinyl-L-alanyl-L-alanyl-L-prolyl-L-phenylalanine p-nitroanilide in 1 ml of 1-methyl-2-pyrrolidinone and dilute to 50 ml with Tris-NaCl buffer.
(C) Enzyme Solution - Human Sputum Cathepsin G (Product No. SG-45, EPC, Inc., Pacific, Mo.). Dissolve 1 mg of protein per 1 ml of Tris-NaCl buffer. Store on ice or at 4° C.
(D) Test Solutions - See the general protocol, number 8.
Procedure: Use the above solution in the general protocol described above. […]

bovine chymotrypsin [5] = target: T1, bovine chymotrypsin; experiment: Chymotrypsin assay (spectrophotometric, p-nitroanilide substrate); type: biochemical; conditions: for Inhibitory Activity Chymotrypsin: inhibitor/protease ratio between about 10/1 and 50/1
Procedure: as §1, §2, §3, §4, §5, §6, §7, §8, §9, §10
(A) Buffer solution - triethanolamine buffer- See trypsin assay.
(B) Substrate Solution - Dissolve 25 mg of 3-carbomethoxypropionyl-L-arginyl-L-prolyl-L-tyrosine p-nitroanilide (Product No. S-2586, KabiVitrum AB, Stockholm, Sweden) in 23.6 ml of water
(C) Enzyme solution - Dissolve 1 mg of bovine chymotrypsin in 4 ml of 0.001N HCl. Prepare the final dilution by combining 0.1 ml of the stock chymotrypsin solution and 10 ml of 0.001N HCl. Store on ice or at 4° C.
Procedure: Use the above solutions in the general protocol
(2) See note 1 of the cathepsin G assay.
(3) 0.1M Tris-HCl, pH 7.8, 20 mM CaCl2, 0.05% triton X-100 can be substituted for the triethanolamine buffer.

Human Sputum Elastase = target: T4, Human Sputum Elastase (Homo sapiens, UniProt P08246); experiment: Elastase assay (spectrophotometric, p-nitroanilide substrate); type: biochemical; conditions: for Inhibitory Activity Elastase: inhibitor/protease ratio between about 10/1 and 50/1; for inhibition of human elastase (in words): text discussion of Table III
T4 construct: Human Sputum Elastase, product No. SE-563 EPC, Inc., Pacific, Mo; USA, Lot 85701; purchased EPC, Inc., Pacific, Mo; USA SE-563; host or cells: human sputum
T4 sequence (P08246 30-267): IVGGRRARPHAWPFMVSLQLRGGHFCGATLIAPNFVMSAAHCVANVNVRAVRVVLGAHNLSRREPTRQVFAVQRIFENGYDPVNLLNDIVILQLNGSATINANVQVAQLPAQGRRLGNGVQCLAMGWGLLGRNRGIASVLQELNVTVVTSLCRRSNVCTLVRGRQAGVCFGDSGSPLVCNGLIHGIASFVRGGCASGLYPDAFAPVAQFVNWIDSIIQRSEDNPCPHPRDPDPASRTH
Procedure: as §1, §2, §3, §4, §5, §6, §7, §8, §9, §10
(A) Buffer Solution - Tris-NaCl buffer consisting of 0.1M Tris-HCl pH 7.5 at 25° C. containing 0.5M NaCl and 0.01% (w/v) NaNs.
(B) Substrate Solution - Dissolve 45.5 mg of N-succinyl-L-alanyl-L-alanyl-L-alanine p-nitroanilide in 1 ml of 1-methyl-2-pyrrolidinone. Add 32 ml of Tris-NaCl buffer.
(C) Enzyme Solution - Human Sputum Elastase, product No. SE-563 EPC, Inc., Pacific, Mo. USA, Lot 85701. Dissolve 1 mg in 1 ml of Tris-NaCl buffer. Store on ice or at 4° C.
(§11) (D) Test Solution - See general protocol, number 8.
(§12) Procedure: Use the above solutions in the general protocol described above.
(1) Buffer Solution - Tris-NaCl buffer -see Method 1.
(2) Substrate Solution - Dissolve 50 mg of 3-carbomethoxypropionyl-L-alanyl-L-alanyl-L-[…]-L-valine p-nitroanilidein 1 ml of 1-methyl-2-pyrrolidinone. Add 32 ml of Tris-NaCl buffer.
(3) Enzyme Solution - Human sputum elastase, product No. SE-563, EPC, inc. Pacific, Mo. USA, Lot 85071. Prepare a sample at a concentration of 0.01 mg per ml of Tris-NaCl buffer. Store on ice.
(4) Test Solution - general protocol, number 8.
Procedure: Use the above solutions in the general protocol.
(1) Porcine pancreatic elastase may be substituted for human elastase when it is desired to test for an inhibitor of the former.
(2) The activity of an elastase preparation can be calculated as [formula]
(3) The Tris-NaCl buffer also can be pH 8.0 with 0.03% sodium azide. Results should be compared at a single pH.

bovine trypsin [6] = target: T3, bovine trypsin; experiment: Trypsin assay (spectrophotometric, N-Benzoyl-L-arginine p-nitroanilide substrate); type: biochemical; conditions: for Inhibitory Activity Trypsin: inhibitor/protease ratio between about 10/1 and 50/1
Procedure: as §1, §2, §3, §4, §5, §6, §7, §8, §9, §10
(A) Buffer Solution - Triethanolamine buffer consisting of 200 mM triethanolamine, 20 mM CaCl2, pH 7.8
(B) Substrate solution - Dissolve 50 mg of N-Benzoyl-L-arginine p-nitroanilide in 50 ml of water. Sonicate for 5 to 10 minutes to completely dissolve the solid material.
(C) Enzyme solution - Dissolve 1 mg of bovine trypsin in 10 ml of 0.001N HCl stored on ice during the assay.
as §11, §12

Substance	inhibition of chymotrypsin (in words) (bovine chymotrypsin [1])	inhibition of cathepsin G (in words) (Human Sputum Cathepsin G [2])	inhibition of trypsin (in words) (bovine trypsin [3])	Inhibitory Activity Cathepsin G (Human Sputum Cathepsin G [4])	Inhibitory Activity Chymotrypsin (bovine chymotrypsin [5])	Inhibitory Activity Elastase (Human Sputum Elastase)	inhibition of human elastase (in words) (Human Sputum Elastase)	Inhibitory Activity Trypsin (bovine trypsin [6])	inhibition of cathepsin G (in words) (Human Sputum Cathepsin G [4]; text discussion of Table III)	inhibition of chymotrypsin (in words) (bovine chymotrypsin [5]; text discussion of Table III)	inhibition of trypsin (in words) (bovine trypsin [6]; text discussion of Table III)
α-1-Proteinase inhibitor	inhibits all of these enzymes	inhibits all of these enzymes	inhibits all of these enzymes								
RVCPGILMKCKKDSDCLAECVCLEHGYCG (RVCPGILMKCKKDSDCLAECVCLEHGYCG) [Peptide 51]				- (Represents less than 10% inhibition)	- (Represents less than 10% inhibition)	++ (Represents greater than 50% inhibition)	is a human elastase inhibitor; also recorded: less effective inhibitor of elastase than peptides 1 or 8	- (Represents less than 10% inhibition)			
R V C Hyp VILMKCKKDSDCLAECVCLEHGYCG [Peptide 47]				- (Represents less than 10% inhibition)	- (Represents less than 10% inhibition)	++ (Represents greater than 50% inhibition)	continue to be inhibitors of human elastase	- (Represents less than 10% inhibition)			
RVPCVILMKLKKDSDCLAECVCLEHGYCG (RVPCVILMKLKKDSDCLAECVCLEHGYCG) [Peptide 50]				- (Represents less than 10% inhibition)	- (Represents less than 10% inhibition)	- (Represents less than 10% inhibition)	only marginal activity	- (Represents less than 10% inhibition)			
RVCPLILMKCKKDSDCLAECVCLEHGYCG (RVCPLILMKCKKDSDCLAECVCLEHGYCG) [Peptide 29]				+ (Represents between 10% and 50% inhibition)	++ (Represents greater than 50% inhibition)	++ (Represents greater than 50% inhibition)	continue to be inhibitors of human elastase	++ (Represents greater than 50% inhibition)			
RVCPMILMKCKKDSDCLAECVCLEHGYCG (RVCPMILMKCKKDSDCLAECVCLEHGYCG) [Peptide 22]				+ (Represents between 10% and 50% inhibition)	++ (Represents greater than 50% inhibition)	++ (Represents greater than 50% inhibition)	inhibits	++ (Represents greater than 50% inhibition)	inhibits	inhibits	inhibits
RVCPRILMKCKKDSDCLAECVCLEHGYC (RVCPRILMKCKKDSDCLAECVCLEHGYC) [Control, comparative control, reference compound]				- (Represents less than 10% inhibition)	- (Represents less than 10% inhibition)	- (Represents less than 10% inhibition)		++ (Represents greater than 50% inhibition)			

Reference: patent publication US4829052A, “Serine protease inhibitors” (Monsanto Company, priority 1987, dated 1989)
